The target in one test is Rhesus monkey TNFα (Rhesus monkey (Macaca mulatta), UniProt P48094 77-233). The experiment in a line: cell-based or functional assay.
Test [1] addresses recombinant Cynomolgus monkey TNFα (Cynomolgus monkey (Macaca fascicularis), UniProt P79337 77-233). The experiment in a line: cell-based or functional assay.
Test [2] has as its target T1, recombinant human TNFα (human, UniProt P01375 77-233). Briefly: cell-based or functional assay.
For test [3], the target named is T1, recombinant human TNFα. The experiment in a line: cell-based or functional assay. The source holds these as a separate data set.
The target in test [4] is T1, recombinant human TNFα. The experiment in a line: inhibition ELISA, blocking of biotinylated TNFα binding to coated TNFRI-Fc; relative to infliximab. In general terms: ELISA stands for enzyme-linked immunosorbent assay.
For test [5], the target named is T1, recombinant human TNFα. The experiment in a line: inhibition ELISA, blocking of biotinylated TNFα binding to coated TNFRII-Fc.
In test [6] the target is T1, recombinant human TNFα. The experiment in a line: inhibition ELISA, blocking of biotinylated TNFα binding to coated TNFRII-Fc; relative to infliximab.
In test [7] the target is T1, recombinant human TNFα. Briefly: inhibition ELISA: biotinylated human TNFα pre-incubated with serially diluted scFv, binding of unblocked TNFα to coated TNFRII-Fc detected.
Test [8] addresses T1, recombinant human TNFα. The experiment in a line: cell-based or functional assay. The source holds these as a separate data set.

Read-outs that look alike come from different tables or passages of the source.

T1 sequence (P01375 77-233 limits assumed): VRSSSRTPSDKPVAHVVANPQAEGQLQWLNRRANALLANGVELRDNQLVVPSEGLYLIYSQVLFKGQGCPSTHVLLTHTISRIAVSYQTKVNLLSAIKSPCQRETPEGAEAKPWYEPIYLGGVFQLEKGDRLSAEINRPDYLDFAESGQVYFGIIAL
recombinant Cynomolgus monkey TNFα, sequence (P79337 77-233 limits assumed): as the sequence (P01375 77-233 limits assumed) above, with L37V, R44T, T72N, R138L counted along it
Rhesus monkey TNFα, sequence (P48094 77-233 limits assumed): as the sequence (P01375 77-233 limits assumed) above, with R44T, T72N, R138L counted along it

B1: humanized scFv 16-22-H05-sc02 (scFv)
scFv: MDIQMTQSPSSLSASVGDRVTIKCQASQSIFSGLAWYQQKPGKAPKLLIYGASKLASGVPSRFSGSGSGTEFTLTISGLQPADFATYYCQSYYYSSSSSDGSYAFGGGTKLTVLGGGGGSGGGGSGGGGSGGGGSEVQLVESGGGLVQPGGSLRLSCKASGIDFNNYGIGWVRQAPGKGLEWITYIYPGFAITNFANSVKGRFTISSDNSKNTVYLQMNSLRAEDTAVYYCARDPVYATSSGYFDLWGQGTLVTVSS
notes: also called 16-22-H05-sc02 (STR); structural graft
As to B1, the “IC50 (read off the curve) (L929 assay, % growth)” value with Rhesus monkey TNFα was roughly 3 ng/mL; in test [1] it was roughly 3 ng/mL; with recombinant human TNFα [2], roughly 0.6 ng/mL; with recombinant human TNFα [3], roughly 0.5 ng/mL. Also, the “rel. IC50 (IC50 infliximab / IC50 scFv, ng/mL)” value with recombinant human TNFα [4] stood at 3.5; with recombinant human TNFα [6] it was 5.7. For the same molecule, the “IC [ng] (head cut off; probably IC50 [ng/mL])” value with recombinant human TNFα [5] was 20 ng (head cut off). In addition, in the test with recombinant human TNFα [7], the “IC50 (read off the curve)” value was roughly 20 ng/mL. Also, the “L929 assay, rel. IC50 (IC50 infliximab / IC50 scFv, ng/mL)” value with recombinant human TNFα [8] is 13.1.

B2: humanized scFv 16-22-H05-sc04 (scFv)
scFv: MDIQMTQSPSSLSASVGDRVTITCQASQSIFSGLAWYQQKPGKAPKLLIYGASKLASGVPSRFSGSGSGTEFTLTISGLQPADFATYYCQSYYYSSSSSDGSYAFGGGTKLTVLGGGGGSGGGGSGGGGSGGGGSEVQLVESGGGLVQPGGSLRLSCKASGIDFNNYGIGWVRQAPGKGLEWITYIYPGFAITNFANSVKGRFTISSDNSKNTVYLQMNSLRAEDTAVYYCARDPVYATSSGYFDLWGQGTLVTVSS
notes: also called 16-22-H05-sc04 (CDR/STR); domain shuffled variant
With B2, the “IC50 (read off the curve) (L929 assay, % growth)” value in the test with Rhesus monkey TNFα is roughly 3 ng/mL; in test [1], roughly 3 ng/mL; in the test with recombinant human TNFα [2] it was roughly 0.6 ng/mL; in the test with recombinant human TNFα [3], roughly 0.5 ng/mL. The “rel. IC50 (IC50 infliximab / IC50 scFv, ng/mL)” value with recombinant human TNFα [4] came to 2.8; with recombinant human TNFα [6], 3.5. In addition, the “IC [ng] (head cut off; probably IC50 [ng/mL])” value in the test with recombinant human TNFα [5] is 32 ng (head cut off). Also, the “IC50 (read off the curve)” value with recombinant human TNFα [7] is roughly 30 ng/mL. Moreover, the “L929 assay, rel. IC50 (IC50 infliximab / IC50 scFv, ng/mL)” value with recombinant human TNFα [8] was 14.6.

The values above are taken from patent US20230272059A1 (TILLOTTS PHARMA, published 2023).
